Legend:
[1] = biological target: T1, CaV2.2 L1-GST fusion protein (first cytosolic loop of CaV2.2) (rat, UniProt Q02294 356-483); test: SPR (BIAcore 3000), immobilized L1-GST
T1 construct: range 356-483; also called cytosolic loop 1; first intracellular loop; not shown: GST tag of the pGex-3x-Glu vector

[2] = biological target: T2, CaV2.2 Ct-dis-GST fusion protein (distal end of the C-terminus of CaV2.2) (rat, UniProt Q02294 2121-2336); test: SPR (BIAcore 3000), immobilized Ct-dis-GST
T2 construct: range 2133-2348; also called distal C-terminus; not shown: GST tag of the pGex-3x-Glu vector
T2 sequence (Q02294 other isoform, or with tags, fused parts or gaps): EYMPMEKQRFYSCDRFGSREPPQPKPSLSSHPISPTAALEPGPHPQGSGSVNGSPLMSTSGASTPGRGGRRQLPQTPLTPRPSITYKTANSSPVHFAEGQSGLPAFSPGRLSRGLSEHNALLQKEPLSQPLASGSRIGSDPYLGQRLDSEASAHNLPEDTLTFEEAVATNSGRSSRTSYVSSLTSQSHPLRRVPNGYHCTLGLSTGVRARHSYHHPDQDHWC

T1 sequence (Q02294 other isoform, or with tags, fused parts or gaps): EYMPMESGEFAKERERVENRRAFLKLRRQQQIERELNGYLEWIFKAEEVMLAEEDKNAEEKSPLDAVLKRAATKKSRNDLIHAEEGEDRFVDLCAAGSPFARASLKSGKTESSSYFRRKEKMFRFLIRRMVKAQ

B1: TAT-Scramble (modified TAT sequence coupled to a random sequence) (peptide)
peptide: YGRKKRRQRRRWEAKEMLYFEALVIE
notes: also called TAT control; scramble peptide
binding result [1]: no binding (tested: 1/3/5 µM) | binding result [2]: no binding (tested: 1/3/5 µM)
